Reference: US20230220589A1

Tests used:
[1] = target: M44-modified M NTAA target peptides; assay: encoding assay; P2 I
[2] = target: M44-modified G NTAA target peptides (M44-G-P2-peptide); assay: encoding assay; P2 I;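 further: fraction of recording tags encoded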
[3] = target: M44-modified I NTAA target peptides (M44-I-P2-peptide); assay: encoding assay; P2 I
[4] = target: M44-modified N NTAA target peptides; assay: encoding assay; P2 I
[5] = target: M44-modified A NTAA target peptides (M44-A-P2-peptide); assay: encoding assay; P2 I
[6] = target: M44-modified L NTAA target peptides (M44-L-P2-peptide); assay: encoding assay; P2 I;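 further: fraction of recording tags encoded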
[7] = target: M44-modified Q NTAA target peptides; assay: encoding assay; P2 I
[8] = target: M44-modified V NTAA target peptides; assay: encoding assay; P2 I;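 further: fraction of recording tags encoded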
[9] = target: M44-modified H NTAA target peptides; assay: encoding assay; P2 I
[10] = target: M44-modified D NTAA target peptides; assay: encoding assay; P2 I;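 further: fraction of recording tags encoded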
[11] = target: M44-modified W NTAA target peptides; assay: encoding assay; P2 I;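 further: fraction of recording tags encoded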
[12] = target: M44-modified Y NTAA target peptides (M44-Y-P2-peptide); assay: encoding assay; P2 I;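 further: fraction of recording tags encoded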
[13] = target: M44-modified T NTAA target peptides; assay: encoding assay; P2 I
[14] = target: M44-modified F NTAA target peptides (M44-F-P2-peptide); assay: encoding assay; P2 I;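 further: fraction of recording tags encoded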
[15] = target: M44-modified E NTAA target peptides; assay: encoding assay; P2 I;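 further: fraction of recording tags encoded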
[16] = target: M44-modified S NTAA target peptides; assay: encoding assay; P2 I
[17] = target: M44-modified M NTAA target peptides; assay: encoding assay; P2 Q
[18] = target: M44-modified I NTAA target peptides (M44-I-P2-peptide); assay: encoding assay; P2 Q
[19] = target: M44-modified N NTAA target peptides; assay: encoding assay; P2 Q
[20] = target: M44-modified A NTAA target peptides (M44-A-P2-peptide); assay: encoding assay; P2 Q
[21] = target: M44-modified L NTAA target peptides (M44-L-P2-peptide); assay: encoding assay; P2 Q;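 further: fraction of recording tags encoded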
[22] = target: M44-modified Q NTAA target peptides; assay: encoding assay; P2 Q
[23] = target: M44-modified V NTAA target peptides; assay: encoding assay; P2 Q;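 further: fraction of recording tags encoded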
[24] = target: M44-modified H NTAA target peptides; assay: encoding assay; P2 Q
[25] = target: M44-modified D NTAA target peptides; assay: encoding assay; P2 Q;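 further: fraction of recording tags encoded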
[26] = target: M44-modified F NTAA target peptides (M44-F-P2-peptide); assay: encoding assay; P2 Q;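 further: fraction of recording tags encoded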
[27] = target: M44-modified E NTAA target peptides; assay: encoding assay; P2 Q;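 further: fraction of recording tags encoded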
[28] = target: M44-modified S NTAA target peptides; assay: encoding assay; P2 Q
[29] = target: M44-modified G NTAA target peptides (M44-G-P2-peptide); assay: encoding assay; P2 W;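 further: fraction of recording tags encoded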
[30] = target: M44-modified I NTAA target peptides (M44-I-P2-peptide); assay: encoding assay; P2 W
[31] = target: M44-modified N NTAA target peptides; assay: encoding assay; P2 W
[32] = target: M44-modified L NTAA target peptides (M44-L-P2-peptide); assay: encoding assay; P2 W;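 further: fraction of recording tags encoded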
[33] = target: M44-modified V NTAA target peptides; assay: encoding assay; P2 W;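 further: fraction of recording tags encoded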
[34] = target: M44-modified D NTAA target peptides; assay: encoding assay; P2 W;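 further: fraction of recording tags encoded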
[35] = target: M44-modified W NTAA target peptides; assay: encoding assay; P2 W;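 further: fraction of recording tags encoded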
[36] = target: M44-modified Y NTAA target peptides (M44-Y-P2-peptide); assay: encoding assay; P2 W;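 further: fraction of recording tags encoded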
[37] = target: M44-modified T NTAA target peptides; assay: encoding assay; P2 W
[38] = target: M44-modified M NTAA target peptides; assay: encoding assay; P2 H
[39] = target: M44-modified I NTAA target peptides (M44-I-P2-peptide); assay: encoding assay; P2 H
[40] = target: M44-modified N NTAA target peptides; assay: encoding assay; P2 H
[41] = target: M44-modified A NTAA target peptides (M44-A-P2-peptide); assay: encoding assay; P2 H
[42] = target: M44-modified L NTAA target peptides (M44-L-P2-peptide); assay: encoding assay; P2 H;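 further: fraction of recording tags encoded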
[43] = target: M44-modified Q NTAA target peptides; assay: encoding assay; P2 H
[44] = target: M44-modified P NTAA target peptides; assay: encoding assay; P2 H;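 further: fraction of recording tags encoded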
[45] = target: M44-modified V NTAA target peptides; assay: encoding assay; P2 H;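 further: fraction of recording tags encoded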
[46] = target: M44-modified H NTAA target peptides; assay: encoding assay; P2 H
[47] = target: M44-modified D NTAA target peptides; assay: encoding assay; P2 H;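 further: fraction of recording tags encoded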
[48] = target: M44-modified W NTAA target peptides; assay: encoding assay; P2 H;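 further: fraction of recording tags encoded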
[49] = target: M44-modified Y NTAA target peptides (M44-Y-P2-peptide); assay: encoding assay; P2 H;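 further: fraction of recording tags encoded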
[50] = target: M44-modified T NTAA target peptides; assay: encoding assay; P2 H
[51] = target: M44-modified F NTAA target peptides (M44-F-P2-peptide); assay: encoding assay; P2 H;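 further: fraction of recording tags encoded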

B1: engineered M44-L binder (SEQ ID NO: 31) (designed binder, not shown: small tags and cut ends; large carriers)
chain: QDSTQNLIPAPPLISVPLQPGFWTERFQGRWFLVGFAGNAVQKERQSRLTMQSLILELQEDNSYNITAINVRGQGCRYIISTLVPSSRPGQFTLGNIHSYPQIQSLDVQVADTDYDQFAMVFLQGTSENKQYFEVALAGRTKGLSDELKERFVSFAKSLGLKDNNIVFSVPTDQCIDN
encoding yield [1]: 0.03 | encoding yield [2]: 0.02 | encoding yield [3]: 0.14 | encoding yield [4]: 0.05 | encoding yield [5]: 0.03 | encoding yield [6]: 0.15 | encoding yield [7]: 0.01 | encoding yield [8]: 0.06 | encoding yield [9]: 0.03 | encoding yield [10]: 0.03 | encoding yield [11]: 0.05 | encoding yield [12]: 0.07 | encoding yield [13]: 0.04 | encoding yield [14]: 0.05 | encoding yield [15]: 0.03 | encoding yield [16]: 0.03 | encoding yield [17]: 0.01 | encoding yield [18]: 0.03 | encoding yield [19]: 0.02 | encoding yield [20]: 0.04 | encoding yield [21]: 0.12 | encoding yield [22]: 0.01 | encoding yield [23]: 0.03 | encoding yield [24]: 0.04 | encoding yield [25]: 0.01 | encoding yield [26]: 0.04 | encoding yield [27]: 0.02 | encoding yield [28]: 0.04 | encoding yield [29]: 0.01 | encoding yield [30]: 0.25 | encoding yield [31]: 0.04 | encoding yield [32]: 0.17 | encoding yield [33]: 0.08 | encoding yield [34]: 0.04 | encoding yield [35]: 0.17 | encoding yield [36]: 0.11 | encoding yield [37]: 0.03 | encoding yield [38]: 0.03 | encoding yield [39]: 0.02 | encoding yield [40]: 0.03 | encoding yield [41]: 0.02 | encoding yield [42]: 0.02 | encoding yield [43]: 0.03 | encoding yield [44]: 0.03 | encoding yield [45]: 0.02 | encoding yield [46]: 0.02 | encoding yield [47]: 0.02 | encoding yield [48]: 0.03 | encoding yield [49]: 0.05 | encoding yield [50]: 0.02 | encoding yield [51]: 0.01

B2: engineered M44-L binder (SEQ ID NO: 21) (designed binder, not shown: small tags and cut ends; large carriers)
chain: QVSVQPNFQQDKFLGRWFYAGHASNSSWYREKVAALSMAKLVVAPATDGGLNATETFLRKNQCETITSLLQPAGSLGSYSSRSPHGGSTWSTSVVETDYDQYALLYLQGSKGPGEDFRGAILASRTQTPRAELKEKFTAFSKAQGFTEDTIVFLPQTDKCMTEQ
encoding yield [1]: 0.03 | encoding yield [2]: 0.02 | encoding yield [3]: 0.13 | encoding yield [4]: 0.01 | encoding yield [5]: 0.01 | encoding yield [6]: 0.06 | encoding yield [7]: 0.01 | encoding yield [8]: 0.03 | encoding yield [9]: 0.01 | encoding yield [10]: 0.01 | encoding yield [11]: 0.02 | encoding yield [12]: 0.03 | encoding yield [13]: 0.01 | encoding yield [14]: 0.01 | encoding yield [15]: 0.01 | encoding yield [16]: 0.02 | encoding yield [17]: 0 | encoding yield [18]: 0 | encoding yield [19]: 0.01 | encoding yield [20]: 0.02 | encoding yield [21]: 0.02 | encoding yield [22]: 0.01 | encoding yield [23]: 0.01 | encoding yield [24]: 0.01 | encoding yield [25]: 0.01 | encoding yield [26]: 0.01 | encoding yield [27]: 0.01 | encoding yield [28]: 0.01 | encoding yield [29]: 0.01 | encoding yield [30]: 0.14 | encoding yield [31]: 0.01 | encoding yield [32]: 0.03 | encoding yield [33]: 0.03 | encoding yield [34]: 0.01 | encoding yield [35]: 0.03 | encoding yield [36]: 0.02 | encoding yield [37]: 0.01 | encoding yield [38]: 0.01 | encoding yield [39]: 0.01 | encoding yield [40]: 0.01 | encoding yield [41]: 0.01 | encoding yield [42]: 0 | encoding yield [43]: 0.01 | encoding yield [44]: 0.01 | encoding yield [45]: 0.01 | encoding yield [46]: 0.01 | encoding yield [47]: 0.01 | encoding yield [48]: 0.01 | encoding yield [49]: 0.02 | encoding yield [50]: 0.01 | encoding yield [51]: 0.01

B3: engineered M44-A binder (SEQ ID NO: 42) (designed binder, not shown: small tags and cut ends; large carriers)
chain: QVSVQPNFQQDKFLGRWFVAGLASNSSWDREKVAALSGAKMVVAPATDGGLNVTRTMLRKNQCETYTGLLQPAGSLGSYSWRSPHPGSTGSESVVETDYDQYALVYGQGSKGPGEDLRAAALWSRTQTPRAELKEKFTAFSKAQGFTEDTIVFLPQTDKCMTEQ
encoding yield [1]: 0.01 | encoding yield [2]: 0.1 | encoding yield [3]: 0.08 | encoding yield [4]: 0.03 | encoding yield [5]: 0.2 | encoding yield [6]: 0.03 | encoding yield [7]: 0.03 | encoding yield [8]: 0.11 | encoding yield [9]: 0.04 | encoding yield [10]: 0.03 | encoding yield [11]: 0.02 | encoding yield [12]: 0.1 | encoding yield [13]: 0.12 | encoding yield [14]: 0.02 | encoding yield [15]: 0.03 | encoding yield [16]: 0.1 | encoding yield [17]: 0.01 | encoding yield [18]: 0.02 | encoding yield [19]: 0.05 | encoding yield [20]: 0.22 | encoding yield [21]: 0.04 | encoding yield [22]: 0.02 | encoding yield [23]: 0.06 | encoding yield [24]: 0.04 | encoding yield [25]: 0.03 | encoding yield [26]: 0.03 | encoding yield [27]: 0.04 | encoding yield [28]: 0.05 | encoding yield [29]: 0.02 | encoding yield [30]: 0.21 | encoding yield [31]: 0.05 | encoding yield [32]: 0.07 | encoding yield [33]: 0.22 | encoding yield [34]: 0.02 | encoding yield [35]: 0.05 | encoding yield [36]: 0.06 | encoding yield [37]: 0.13 | encoding yield [38]: 0.04 | encoding yield [39]: 0.04 | encoding yield [40]: 0.05 | encoding yield [41]: 0.05 | encoding yield [42]: 0.03 | encoding yield [43]: 0.05 | encoding yield [44]: 0.05 | encoding yield [45]: 0.03 | encoding yield [46]: 0.02 | encoding yield [47]: 0.04 | encoding yield [48]: 0.03 | encoding yield [49]: 0.07 | encoding yield [50]: 0.04 | encoding yield [51]: 0.02
